Experimental data reported in article PMC8251803.

Target: cytochrome c oxidase from Aquifex aeolicus (AaCcO), protomer of subunits CoxA2, CoxB2 and IIa (Aquifex aeolicus) (UniProt O67937)
Experiment: cryo-EM structure; single-particle cryo-EM with 3D classification (RELION) of the sample purified from native A. aeolicus membranes by anion exchange and size-exclusion chromatography; fractions with a dominant band around 242 kDa in Blue Native PAGE; two classes of particles (dimeric complex III, dimeric AaCcO); AaCcO dimer at 3.4 Å

stoichiometry N: 2
Substance: cytochrome c oxidase from Aquifex aeolicus (AaCcO), protomer of subunits CoxA2, CoxB2 and IIa (from UniProt O67937 1-592) (complex)
